The record followed here is PMC6506404.

One may read the stoichiometry N as the number of molecules, sites or subunits per partner or assembly.

Common to all, as to assay: cryo-EM structure
Assay [1] deals with BMC-T^D3 shell protein of the Haliangium ochraceum (HO) BMC shell (Haliangium ochraceum) (UniProt D0LV02).
For assay [2], the target named is BMC-T^S1 shell protein of the Haliangium ochraceum (HO) BMC shell (Haliangium ochraceum).
Assay [3] deals with BMC-T^D2 shell protein of the Haliangium ochraceum (HO) BMC shell (Haliangium ochraceum) (UniProt D0LID6).

In turn, “BMC-T^D3 shell protein of the Haliangium ochraceum (HO) BMC shell (from UniProt D0LV02 1-206) (natural protein)” returned a stoichiometry N in assay [1] of 6. As for “BMC-T^S1 shell protein of the Haliangium ochraceum (HO) BMC shell (natural protein)”, in assay [2], the stoichiometry N came out at 3. The substance “BMC-T^D2 shell protein of the Haliangium ochraceum (HO) BMC shell (from UniProt D0LID6 1-212) (natural protein)” had a stoichiometry N in assay [3] of 6.
